Source: US10597674B2, “HPPD variants and methods of use” (BASF Agricultural Solutions Seed, US LLC, priority 2015, dated 2020)
Where two headings read alike, the source gives them in different places.

Columns and labels:
[1] = system: HPPD polypeptides (wild-type SEQ ID NO:1 and mutants); conditions: high substrate concentration; for Residual activity: kapp normalized to kapp without inhibitor; for Residual turnover: total change in signal normalized to no inhibitor
[2] = system: transgenic soybean T0 events; experiment: Greenhouse spray test of T0 soybean events, herbicide tolerance rating 0-3; assay type: in vivo; conditions: wild-type soybean plants, 300 g AI/ha, 5 days after spraying
Description: Tolerant green shoots were transferred to rooting media or grafted. Rooted plantlets were transferred to the greenhouse after an acclimation period. Plants containing the transgene were then sprayed with HPPD inhibitor herbicides, as for example with mesotrione at a rate of 300-600 g AI/ha, or with Cmpd. […] Five to ten days after the application, the symptoms due to the application of the herbicide were evaluated and compared to the symptoms observed on wild-type plants under the same conditions.
For example, T0 soybean plants having a “plant expression cassette”, which includes an HPPD inhibitor tolerant HPPD polypeptide of the present invention, were tested towards the tolerance of Cmpd. 1.
Prior greenhouse trials with the transgenic plants, soybean transformants were routinely analyzed for the expression and presence of the transgenes using the ELISA protein detection method (see detailed description under item D and H). Only plants recovering in the selection media and having a detectable HPPD transgene protein expression were used for the herbicide tolerance analysis. A DeVries Tracker Sprayer was calibrated prior to each spraying. The chemical formulation used for Cmpd. 1 was supplemented with ammonium sulfate and methylated rape seed oil. Spray tests were conducted with a concentration, which equals to 300 grams AI per hectare (300 g AI/ha). Tolerance was evaluated 5 days after spraying. […] A rating of “3” was assigned to plants showing good tolerance, i.e. less than 10% of the leaf area from the top three trifoliate leaves showing chlorosis or only very slight bleaching.

[3] = system: transgenic soybean T0 events; experiment: Additional greenhouse trials of T0 soybean events, leaf damage score 0-100 as percentiles; assay type: in vivo; conditions: wild-type plants, 300 g AI/ha, five days, scale 0-100
Method in brief: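 Independent T0 events (21 to 94 per construct, single cassette insertion) expressing mutant HPPD were sprayed with HPPD inhibitor herbicide in the greenhouse. Leaf damage scored 5 days after application from 0 (no damage) to 100 (complete bleaching). Scores reported as percentile distributions (25th, median, 75th) per construct.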

[4] = in the presence of Cmpd. 1, 15 μM inhibitor
[5] = in the presence of Cmpd. 2, 15 μM inhibitor
[6] = in the presence of diketonitrile (DKN), 60 μM inhibitor
[7] = in the presence of mesotrione (MST), 60 μM inhibitor

Structure (SMILES): CSc1c(C(F)(F)F)ccc(C(=O)Nc2nnnn2C)c1Cl [Cmpd. 1, 2-chloro-3-(methylsulfanyl)-N-(1-methyl-1H-tetrazol-5-yl)-4-(trifluoromethyl)benzamide, reference compound]
- Residual activity [1, 4]: 6%
- Residual turnover [1, 4]: 6%
- Residual activity [1, 5]: 8%
- Residual turnover [1, 5]: 8%
- Residual activity [1, 6]: 7%
- Residual turnover [1, 6]: 8%
- Residual activity [1, 7]: 6%
- Residual turnover [1, 7]: 8%
- leaf damage of the top two trifoliate leaves [2]: more than 95%
- damage score [3]: 95-100
